T1: cynomolgus monkey IL-4 (cynomolgus monkey, UniProt P79339 25-153)
T1 construct: mature; also called cy IL-4; cyno IL-4
T1 sequence (looked up): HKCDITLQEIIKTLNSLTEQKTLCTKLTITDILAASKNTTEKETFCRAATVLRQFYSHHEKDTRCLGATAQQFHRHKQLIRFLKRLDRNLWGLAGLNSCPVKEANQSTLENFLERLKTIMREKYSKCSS

T2: human IL-4 (human, UniProt P05112 25-153)
T2 sequence (looked up): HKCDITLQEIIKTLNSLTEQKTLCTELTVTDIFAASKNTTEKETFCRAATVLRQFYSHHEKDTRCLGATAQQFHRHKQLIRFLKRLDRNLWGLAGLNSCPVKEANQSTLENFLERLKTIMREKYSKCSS

T3: human IL-23 (human, UniProt Q9NPF7 20-189; P29460 23-328)
T3 sequence (looked up) 1: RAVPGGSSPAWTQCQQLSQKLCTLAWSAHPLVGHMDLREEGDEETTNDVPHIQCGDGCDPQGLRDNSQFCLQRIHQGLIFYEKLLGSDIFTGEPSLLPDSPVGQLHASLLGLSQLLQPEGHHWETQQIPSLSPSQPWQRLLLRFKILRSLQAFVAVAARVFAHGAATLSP
T3 sequence (looked up) 2: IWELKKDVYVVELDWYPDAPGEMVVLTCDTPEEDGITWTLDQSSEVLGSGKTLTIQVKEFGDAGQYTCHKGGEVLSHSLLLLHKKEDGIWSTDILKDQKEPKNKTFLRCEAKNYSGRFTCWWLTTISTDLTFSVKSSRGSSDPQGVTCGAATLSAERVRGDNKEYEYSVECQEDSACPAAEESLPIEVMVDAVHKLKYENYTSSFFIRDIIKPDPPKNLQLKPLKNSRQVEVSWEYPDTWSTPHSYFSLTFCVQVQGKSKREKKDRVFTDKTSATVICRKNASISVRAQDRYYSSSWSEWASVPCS

T4: human IL-12 (human, UniProt P29459 23-219; P29460 23-328)
T4 sequence (looked up) 1: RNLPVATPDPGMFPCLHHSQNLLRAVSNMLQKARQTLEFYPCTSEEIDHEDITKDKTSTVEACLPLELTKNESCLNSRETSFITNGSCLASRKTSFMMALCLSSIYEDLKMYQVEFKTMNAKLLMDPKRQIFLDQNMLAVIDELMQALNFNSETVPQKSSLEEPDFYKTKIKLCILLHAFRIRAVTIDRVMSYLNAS
T4 sequence (looked up) 2: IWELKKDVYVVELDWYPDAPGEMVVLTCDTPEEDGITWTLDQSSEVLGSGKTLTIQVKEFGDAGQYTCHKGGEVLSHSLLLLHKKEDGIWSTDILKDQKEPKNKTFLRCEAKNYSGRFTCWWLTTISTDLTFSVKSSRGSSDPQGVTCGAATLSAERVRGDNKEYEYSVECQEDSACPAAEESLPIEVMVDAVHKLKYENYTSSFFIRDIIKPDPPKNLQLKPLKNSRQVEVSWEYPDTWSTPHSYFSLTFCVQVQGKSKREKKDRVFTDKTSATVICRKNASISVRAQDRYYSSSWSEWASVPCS

T5: cynomolgus monkey IL-12 (cynomolgus monkey, UniProt A0A2K5V4L8 57-253; G7P6S2 23-328)
T5 sequence (p35): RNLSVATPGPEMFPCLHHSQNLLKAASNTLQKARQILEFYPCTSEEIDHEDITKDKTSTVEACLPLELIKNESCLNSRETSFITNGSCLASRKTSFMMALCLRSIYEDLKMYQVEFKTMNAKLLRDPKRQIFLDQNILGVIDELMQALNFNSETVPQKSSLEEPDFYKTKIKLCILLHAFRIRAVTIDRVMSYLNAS
T5 sequence (p40): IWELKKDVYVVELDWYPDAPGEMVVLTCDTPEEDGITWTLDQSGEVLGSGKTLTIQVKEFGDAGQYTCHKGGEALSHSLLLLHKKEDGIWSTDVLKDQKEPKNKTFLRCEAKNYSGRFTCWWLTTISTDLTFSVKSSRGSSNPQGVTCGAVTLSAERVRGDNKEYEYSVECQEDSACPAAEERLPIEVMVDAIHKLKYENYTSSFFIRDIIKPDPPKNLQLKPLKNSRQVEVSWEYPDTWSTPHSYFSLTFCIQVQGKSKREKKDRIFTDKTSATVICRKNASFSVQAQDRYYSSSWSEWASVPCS

T6: recombinant human IL-33 (wild type, Ser112-Thr270) (human, UniProt O95760 112-270)
T6 sequence (looked up): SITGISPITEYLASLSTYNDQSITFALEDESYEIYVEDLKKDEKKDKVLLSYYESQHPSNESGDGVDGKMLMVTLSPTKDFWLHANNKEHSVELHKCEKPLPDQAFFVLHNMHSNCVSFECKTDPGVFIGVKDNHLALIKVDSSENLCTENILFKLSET

T7: human IL-4 (human, UniProt P05112 25-153)
T7 sequence (looked up): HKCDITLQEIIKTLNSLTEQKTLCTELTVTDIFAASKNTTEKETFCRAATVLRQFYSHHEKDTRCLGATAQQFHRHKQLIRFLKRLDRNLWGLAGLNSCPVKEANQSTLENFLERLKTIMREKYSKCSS


Key:
cynomolgus monkey IL-4 = target: T1, cynomolgus monkey IL-4; assay: KinExA, fixed antigen
Experimental: Samples were prepared in PBS containing 0.1% sodium azide and 1.0 mg/ml BSA. The fixed antigen assay method was used to determine binding affinity. […] Each trispecific and IL-4 cytokine were equilibrated for at least 72 hours at room temperature, then passed through a flow cell containing Polymethylmethacrylate (PMMA) beads coated with anti-hIL-4 Ab-0002 (Pfizer) that contains the same IL-4 binding domain as the trispecifics. […] Data analysis was performed with KinExA Pro software version 4.3.11 (Sapidyne). […] The ‘drift correction’ fitting option was used when responses varied between replicate injections. Two curves were obtained in independent experiments and analyzed using the ‘n-curve analysis’ tool to obtain global best fit values for the KD and active concentration of IL-4 cytokine. The software reports each best fit value along with a 95% confidence interval.
Samples were prepared in PBS containing 0.1% sodium azide and 1.0 mg/ml BSA. A fixed antigen assay method was used to determine binding affinity.

human IL-4 [1] = target: T2, human IL-4; assay: cell-based or functional assay
human IL-23 = target: T3, human IL-23; assay: cell-based or functional assay
cynomolgus monkey IL-13 = cynomolgus monkey IL-13 (cynomolgus monkey, UniProt Q0PW92 19-132); assay: cell-based or functional assay
human IL-12 = target: T4, human IL-12; assay: cell-based or functional assay
cynomolgus monkey IL-23 = cynomolgus monkey IL-23 (cynomolgus monkey, UniProt H6WS56 20-189); assay: cell-based or functional assay
cynomolgus monkey IL-12 = target: T5, cynomolgus monkey IL-12; assay: cell-based or functional assay
human IL-13 [2] = target: human IL-13 (human, UniProt P35225 35-146); assay: cell-based or functional assay
Target sequence in this assay (P35225 35-146 limits assumed, form in doubt): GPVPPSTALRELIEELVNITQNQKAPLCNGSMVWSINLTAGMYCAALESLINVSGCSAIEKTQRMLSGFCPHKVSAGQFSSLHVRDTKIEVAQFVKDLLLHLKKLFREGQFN

[3] = target: T6, recombinant human IL-33 (wild type, …); assay: cell-based or functional assay
human IL-4 [4] = target: T7, human IL-4; assay: cell-based or functional assay; remark: listed apart in the source
human IL-13 [5] = target: human IL-13 (human, UniProt P35225 35-146); assay: cell-based or functional assay; remark: listed apart in the source
Target sequence in this assay (P35225 35-146 limits assumed): as the sequence (P35225 35-146 limits assumed, form in doubt) above

Chain of cynomolgus monkey IL-13 (Q0PW92 entry or part of it limits assumed): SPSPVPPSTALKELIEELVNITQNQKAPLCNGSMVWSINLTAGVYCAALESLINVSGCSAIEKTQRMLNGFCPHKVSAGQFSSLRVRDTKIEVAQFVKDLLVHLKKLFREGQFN

Row | Binder | fold of the human IL-4 affinity value (cynomolgus monkey IL-4) [fold] | fold IL-4 neutralization activity over dupilumab (monocyte CD23 bioassay) (human IL-4 [1]) [fold] | fold lower potency than mAb IL4-1040 (monocyte CD23 bioassay) (human IL-4 [1]) [fold] | fold less potent than p40-0003, Kit-225 pSTAT3 assay (human IL-23) [fold] | fold less potent than p40-0003, whole blood pSTAT3 assay (human IL-23) [fold] | fold reduced neutralization compared to the human cytokine (monocyte CD23 bioassay) (cynomolgus monkey IL-13) [fold] | fold less potent than p40-0003, Kit-225 pSTAT4 assay (human IL-12) [fold] | fold less potent than p40-0003, whole blood pSTAT4 assay (human IL-12) [fold] | fold difference in potency between human and cynomolgus monkey IL-23, Kit-225 assay (cynomolgus monkey IL-23) [fold] | fold difference in potency between human and cynomolgus monkey IL-12, Kit-225 assay (cynomolgus monkey IL-12) [fold] | fold IL-13 neutralization activity over dupilumab (monocyte CD23 bioassay) (human IL-13 [2]) [fold] | fold lower potency than IL13-0001 (monocyte CD23 bioassay) (human IL-13 [2]) [fold] | a-IL-33 bioassay (WT) IC50 [pM] [3] [pM] | a-hIL-4 IC50 [pM] (human IL-4 [4]) | a-hIL-13 IC50 [pM] (human IL-13 [5])
1 | IL413P40-0705 (trispecific antibody, EE/RR, LS; also called IL134P40-0705; Tri-Fab-Fc IL413p40-0705) heavy: EVQLVQSGAEVKKPGESLKISCKGSGYSFTTYWLGWVRQMPGKGLDWIGIMSPVDSDIRYSPSFQGQVTMSVDKSITTAYLQWNSLKASDTAMYYCARRRPGQGYFDFWGQGTLVTVSSASTKGPSVFPLAPSSKSTSGGTAALGCLVKDYFPEPVTVSWNSGALTSGVHTFPAVLQSSGLYSLSSVVTVPSSSLGTQTYICNVNHKPSNTKVDKKVEPKSCRKTHTCPPCPAPEAAGAPSVFLFPPKPKDTLMISRTPEVTCVVVDVSHEDPEVKFNWYVDGVEVHNAKTKPREEQYNSTYRVVSVLTVLHQDWLNGKEYKCKVSNKALPAPIEKTISKAKGQPREPQVYTLPPSREEMTKNQVSLTCLVKGFYPSDIAVEWESNGQPENNYKTTPPVLDSDGSFFLYSRLTVDKSRWQQGNVFSCSVLHEALHSHYTQKSLSLSPGK chain 1: DIQMTQSPSSLSASVGDRVTITCKASESVDHFGWSLVHWYQQKPGKAPKLLIYRASNLESGVPSRFSGSGSGTDFTLTISSLQPEDFATYYCQQSNEDPWTFGGGTKVEIKRTVAAPSVFIFPPSDEQLKSGTASVVCLLNNFYPREAKVQWKVDNALQSGNSQESVTEQDSKDSTYSLSSTLTLSKADYEKHKVYACEVTHQGLSSPVTKSFNRGECGGGGSEVTLRESGPALVKPTQTLTLTCTFSGFSLSNFGEGLSWIRQPPGKGLEWLAHIYWDDDKRYNPSLKSRLTISKDTSRNQVVLTMTNMDPVDTATYYCARRETVFYWYFDVWGQGTTVTVSSASTKGPSVFPLAPSSKSTSGGTAALGCLVKDYFPEPVTVSWNSGALTSGVHTFPAVLQSSGLYSLSSVVTVPSSSLGTQTYICNVNHKPSNTKVDKKVEPKSCEKTHTCPPCPAPEAAGAPSVFLFPPKPKDTLMISRTPEVTCVVVDVSHEDPEVKFNWYVDGVEVHNAKTKPREEQYNSTYRVVSVLTVLHQDWLNGKEYKCKVSNKALPAPIEKTISKAKGQPREPQVYTLPPSREEMTKNQVSLTCEVKGFYPSDIAVEWESNGQPENNYKTTPPVLDSDGSFFLYSKLTVDKSRWQQGNVFSCSVLHEALHSHYTQKSLSLSPGK light 1: not shown light 2: DIQMTQSPSSLSASVGDRVTITCRASQSVDEEGDSYMNWYQQKPGKAPKLLIYAASNLESGVPSRFSGSGSGTDFTLTISSLQPEDFATYYCQQSNKDPPTFGGGTKVEIKRTVAAPSVFIFPPSDEQLKSGTASVVCLLNNFYPREAKVQWKVDNALQSGNSQESVTEQDSKDSTYSLSSTLTLSKADYEKHKVYACEVTHQGLSSPVTKSFNRGEC chain 2: EVQLVESGGGLVQPGGSLRLSCAASGFTFSSYAMSWVRQAPGKGLEWVASISSGDTTYYPDSVKGRFTISRDNAKNSLYLQMNSLRAEDTAVYYCARNEGYYFGLTLWGQGTLVTVSSASTKGPSVFPLAPSSKSTSGGTAALGCLVKDYFPEPVTVSWNSGALTSGVHTFPAVLQSSGLYSLSSVVTVPSSSLGTQTYICNVNHKPSNTKVDKKVEPKSC | ≤ 1.2 | ~10 | ~3.2 | 2.6 | 2.4 | ~4 | 2.9 | 1.5 | < 2 | < 2 | 8.9 | ~2.4 | – | – | –
2 | IL13433-1042 (other) heavy: EVQLVESGGGLVQPGGSLRLSCAASGFTFSSYWMYWVRQAPGKGLEWVAAITPNAGEDYYPESVKGRFTISRDNAKNSLYLQMNSLRAEDTAVYYCARGQYYYTKYSLGYWGQGTLVTVSSASTKGPSVFPLAPSSKSTSGGTAALGCLVKDYFPEPVTVSWNSGALTSGVHTFPAVLQSSGLYSLSSVVTVPSSSLGTQTYICNVNHKPSNTKVDKKVEPKSCRKTHTCPRCPAPEAAGAPSVFLFPPKPKDTLMISRTPEVTCVVVDVSHEDPEVKFNWYVDGVEVHNAKTKPREEQYNSTYRVVSVLTVLHQDWLNGKEYKCKVSNKALPAPIEKTISKAKGQPREPQVYTLPPSREEMTKNQVSLTCLVKGFYPSDIAVEWESNGQPENNYKTTPPVLDSDGSFFLYSRLTVDKSRWQQGNVFSCSVLHEALHSHYTQKSLSLSPGK chain 1: DIQMTQSPSSLSASVGDRVTITCKASESVDHFGWSLVHWYQQKPGKAPKLLIYRASNLESGVPSRFSGSGSGTDFTLTISSLQPEDFATYYCQQSNEDPWTFGGGTKVEIKRTVAAPSVFIFPPSDEQLKSGTASVVCLLNNFYPREAKVQWKVDNALQSGNSQESVTEQDSKDSTYSLSSTLTLSKADYEKHKVYACEVTHQGLSSPVTKSFNRGECGGGGSEVTLRESGPALVKPTQTLTLTCTFSGFSLSNFGEGLSWIRQPPGKGLEWLAHIYWDDDKRYNPSLKSRLTISKDTSRNQVVLTMTNMDPVDTATYYCARRETVFYWYFDVWGQGTTVTVSSASTKGPSVFPLAPSSKSTSGGTAALGCLVKDYFPEPVTVSWNSGALTSGVHTFPAVLQSSGLYSLSSVVTVPSSSLGTQTYICNVNHKPSNTKVDKKVEPKSCEKTHTCPECPAPEAAGAPSVFLFPPKPKDTLMISRTPEVTCVVVDVSHEDPEVKFNWYVDGVEVHNAKTKPREEQYNSTYRVVSVLTVLHQDWLNGKEYKCKVSNKALPAPIEKTISKAKGQPREPQVYTLPPSREEMTKNQVSLTCEVKGFYPSDIAVEWESNGQPENNYKTTPPVLDSDGSFFLYSKLTVDKSRWQQGNVFSCSVLHEALHSHYTQKSLSLSPGK light 1: DIQMTQSPSSLSASVGDRVTITCRASQPIHNHLDWYQQKPGKAPKLLIYFGKNLQEGVPSRFSGSGSGTDFTLTISSLQPEDFATYYCFQYKKGWSFGGGTKVEIKRTVAAPSVFIFPPSDEQLKSGTASVVCLLNNFYPREAKVQWKVDNALQSGNSQESVTEQDSKDSTYSLSSTLTLSKADYEKHKVYACEVTHQGLSSPVTKSFNRGEC light 2: DIQMTQSPSSLSASVGDRVTITCRASQSVDEEGDSYMNWYQQKPGKAPKLLIYAASNLESGVPSRFSGSGSGTDFTLTISSLQPEDFATYYCQQSNEDPPTFGGGTKVEIKRTVAAPSVFIFPPSDEQLKSGTASVVCLLNNFYPREAKVQWKVDNALQSGNSQESVTEQDSKDSTYSLSSTLTLSKADYEKHKVYACEVTHQGLSSPVTKSFNRGEC chain 2: EVQLVESGGGLVQPGGSLRLSCAASGFTFSSYAMSWVRQAPGKGLEWVASISSGDTTYYPDSVKGRFTISRDNAKNSLYLQMNSLRAEDTAVYYCARNEGYYFGLTLWGQGTLVTVSSASTKGPSVFPLAPSSKSTSGGTAALGCLVKDYFPEPVTVSWNSGALTSGVHTFPAVLQSSGLYSLSSVVTVPSSSLGTQTYICNVNHKPSNTKVDKKVEPKSC | – | – | – | – | – | – | – | – | – | – | – | – | 28 | 7.1 | 12.4

— patent US20240117030A1 (Pfizer, published 2024)
